According to US20260263554A1, “COMPOSITION COMPRISING CPNE7 PROTEIN OR CPNE7 PROTEIN-DERIVED PEPTIDE FOR REMOVING REACTIVE OXYGEN SPECIES IN CELLS” (HYSENSBIO CO., LTD, priority 2022, published 2026):

Columns and labels:
[1] = tested on: Human dental pulp cells (hDPCs); experiment: Optical microscope observation of hDPCs after H2O2 and test substance; assay type: cell-based; conditions: H2O2 5 uM, 100 uM, 1 mM or 2 mM, 100 ng/ml recombinant CPNE7 protein, 24 hours, compared to control without rCPNE7
Procedure: Human dental pulp cells (hDPCs) were cultured in an α-MEM medium containing 10% FBS under 37° C. and 5% CO2 conditions.
hDPCs were seeded into 35 mm culture dishes at a density of 1×10^5 cells, cultured for 24 hours, treated with H2O2 at a concentration of 5 uM, 100 uM, 1 mM, or 2 mM, respectively, and then treated with 100 ng/ml of a recombinant CPNE7 protein and cultured for 24 hours. After the culture was completed, the cultured cells were washed with PBS, and observed using an optical microscope. At this time, the hDPCs cultured without treating the recombinant CPNE7 protein (rCPNE7) were used as the control.
Cultured hDPC cells were seeded into 6-well plates at a density of 1×10^5 cells per well, cultured for 24 hours, and then treated with 1 mM hydrogen peroxide (H2O2) and treated with Selcopintide at concentrations of 1 μg/mL, 10 μg/mL, 100 μg/mL, and 500 μg/mL for 24 hours. Untreated hDPCs were used as the control.

[2] = tested on: hDPCs; experiment: Immunofluorescence staining with γ-H2A.X (DNA damage marker); assay type: cell-based, human; conditions: 1 mM H2O2, 100 ng/mL CPNE7 recombinant protein, 24 hours, vs 1 mM H2O2 group
Procedure: Cultured hDPCs were seeded into 35 mm culture dishes for a confocal microscope at a density of 1×10^5 cells, cultured for 24 hours, and then treated with 1 mM H2O2 and treated with 100 ng/mL of rCPNE7. After 24 hours, the cells were fixed with 4% paraformaldehyde.
Immunofluorescence staining using a γ-H2A.X antibody was performed on the fixed cells to compare intensity.
Cultured hDPCs were seeded into 35 mm culture dishes for a confocal microscope at a density of 1×10^5 cells, cultured for 24 hours, and then treated with 1 mM H2O2 and treated with 10 μg/mL of Selcopintide. After 24 hours, the cells were fixed with 4% paraformaldehyde.

[3] = tested on: endogenous antioxidant enzymes in hDPC cells; experiment: mRNA levels of endogenous antioxidant enzymes by RT-PCR; assay type: cell-based, human; conditions: hDPCs, 1 mM H2O2, CPNE7 recombinant protein 100 ng/mL or Selcopintide 10 ug/mL
Procedure: Cultured hDPCs were seeded into 60 mm culture dishes at a density of 4×10^5 cells, cultured for 24 hours, and then treated with 1 mM H2O2 and treated with the CPNE7 recombinant protein (100 ng/mL) and Selcopintide (10 ug/mL). After 30 minutes and one hour, the mRNA levels of Sod1, 2, and 3, catalase, Gpx7, Hmox1, and Txmd1 were checked.

[4] = tested on: hDPCs; experiment: Beta-galactosidase (B-gal) staining, cell aging; assay type: cell-based, human; conditions: 1 mM H2O2, 100 ng/mL rCPNE7, 12 or 24 hours, compared to H2O2-only-treated group
Procedure: For this purpose, cultured hDPCs were seeded into 6-well plates at a density of 1×10^5 cells, cultured for 24 hours, and then treated with 1 mM H2O2 and treated with 100 ng/mL of rCPNE7. After 12 or 24 hours, the cells were fixed with 4% paraformaldehyde.
Next, B-gal staining was performed on the fixed cells for 24 hours to compare the degree of cell aging.

[5] = tested on: hDPCs; experiment: Reactive oxygen species level with DCFDA, confocal microscope; assay type: cell-based, human; conditions: 1 mM H2O2, 100 ng/mL rCPNE7, imaged for approximately one hour
Procedure: Cultured hDPCs were seeded into 35 mm culture dishes for a confocal microscope at a density of 1×10^5 cells, cultured for 24 hours, and then treated with 1 mM H2O2 and treated with 100 ng/mL of rCPNE7. Then, images were taken for approximately one hour using a confocal microscope.
Cultured hDPCs were seeded into 35 mm culture dishes for a confocal microscope at a density of 1×10^5 cells, cultured for 24 hours, and then treated with 1 mM H2O2 and treated with 10 μg/mL of Selcopintide. Thereafter, images were taken for approximately one hour using a confocal microscope.

B1: CPNE7 recombinant protein: recombinant Copine-7 (CPNE7) protein (protein, UniProt Q9UBL6 1-633, looked up)
Copine-7: MSAGSERGAAATPGGLPAPCASKVELRLSCRHLLDRDPLTKSDPSVALLQQAQGQWVQVGRTEVVRSSLHPVFSKVFTVDYYFEEVQRLRFEVYDTHGPSGFSCQEDDFLGGMECTLGQPAQKWLLQVVMRVSVDVLGPAGHCAKHFLCCTESSHLARTGPSFLLRYDDLCLPWATAGAVRWWTCRGGHTQGWQIVAQKKVTRPLLLKFGRNAGKSTITVIAEDISGNNGYVELSFRARKLDDKDLFSKSDPFLELYRVNDDQGLQLVYRTEVVKNNLNPVWEAFKVSLSSLCSCEETRPLKCLVWDYDSRGKHDFIGEFSTTFEEMQKAFEEGQAQWDCVNPKYKQKRRSYKNSGVVVLADLKFHRVYSFLDYIMGGCQIHFTVAIDFTASNGDPRNSCSLHYINPYQPNEYLKALVSVGEICQDYDSDKRFSALGFGARIPPKYEVSHDFAINFNPEDDECEGIQGVVEAYQNCLPRVQLYGPTNVAPIISKVARVAAAEESTGKASQYYILLILTDGVVTDMADTREAIVRASRLPMSIIIVGVGNADFTDMQVLDGDDGVLRSPRGEPALRDIVQFVPFRELKNASPAALAKCVLAEVPKQVVEYYSHRGLPPRSLGVPAGEASPGCTP
[1]
  cell viability (optical microscope): higher
[2]
  accumulation of DNA damage (γ-H2A.X intensity): significantly reduced
[3]; after 30 minutes, compared to H2O2-only-treated group
  mRNA of endogenous antioxidant enzymes Sod1, 2, and catalase: significantly increased
[3]; after one hour
  mRNA of Sod1 and Gpx7, and Hmox1 and Txrnd1: significantly increased
[4]
  B-gal positive hDPC cells: significantly reduced
[5]
  amount of reactive oxygen species (DCFDA): decreased and became significant at approximately one hour
